Biological target: Bacillus anthracis protective antigen, 63 kDa activated form (PA63), as ion channels in a tethered b (B. anthracis, UniProt P13423)
Assay: SPR
Conditions: both partners purified

Chain of Bacillus anthracis protective antigen, 63 kDa activated form (PA63), as ion channels in a tethered b (P13423 197-764): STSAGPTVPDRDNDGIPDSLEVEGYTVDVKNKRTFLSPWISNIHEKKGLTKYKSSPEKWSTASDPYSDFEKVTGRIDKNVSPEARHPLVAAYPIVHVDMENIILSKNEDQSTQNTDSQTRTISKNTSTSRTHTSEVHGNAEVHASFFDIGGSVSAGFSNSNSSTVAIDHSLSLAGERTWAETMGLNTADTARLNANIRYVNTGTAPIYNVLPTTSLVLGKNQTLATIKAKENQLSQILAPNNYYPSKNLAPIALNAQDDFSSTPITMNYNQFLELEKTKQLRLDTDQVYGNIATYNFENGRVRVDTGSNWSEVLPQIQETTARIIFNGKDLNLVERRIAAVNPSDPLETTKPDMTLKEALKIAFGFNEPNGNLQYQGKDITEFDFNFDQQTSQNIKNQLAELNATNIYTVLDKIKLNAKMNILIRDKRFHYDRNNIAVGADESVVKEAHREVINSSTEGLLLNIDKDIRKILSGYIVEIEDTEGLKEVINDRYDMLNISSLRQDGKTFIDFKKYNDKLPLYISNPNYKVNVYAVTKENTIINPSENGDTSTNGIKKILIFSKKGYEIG

B1: Bacillus anthracis Lethal Factor (natural protein)
chain: AGGHGDVGMHVKEKEKNKDENKRKDEERNKTQEEHLKEIMKHIVKIEVKGEEAVKKEAAEKLLEKVPSDVLEMYKAIGGKIYIVDGDITKHISLEALSEDKKKIKDIYGKDALLHEHYVYAKEGYEPVLVIQSSEDYVENTEKALNVYYEIGKILSRDILSKINQPYQKFLDVLNTIKNASDSDGQDLLFTNQLKEHPTDFSVEFLEQNSNEVQEVFAKAFAYYIEPQHRDVLQLYAPEAFNYMDKFNEQEINLSLEELKDQRMLARYEKWEKIKQHYQHWSDSLSEEGRGLLKKLQIPIEPKKDDIIHSLSQEEKELLKRIQIDSSDFLSTEEKEFLKKLQIDIRDSLSEEEKELLNRIQVDSSNPLSEKEKEFLKKLKLDIQPYDINQRLQDTGGLIDSPSINLDVRKQYKRDIQNIDALLHQSIGSTLYNKIYLYENMNINNLTATLGADLVDSTDNTKINRGIFNEFKKNFKYSISSNYMIVDINERPALDNERLKWRIQLSPDTRAGYLENGKLILQRNIGLEIKDVQIIKQSEKEYIRIDAKVVPKSKIDTKIQEAQLNINQEWNKALGLPKYTKLITFNVHNRYASNIVESAYLILNEWKNNIQSDLIKKVTNYLVDGNGRFVFTDITLPNIAEQYTHQDEIYEQVHSKGLYVPESRSILLHGPSKGVELRNDSEGFIHEFGHAVDDYAGYLLDKNQSDLVTNSKKFIDIFKEEGSNLTSYGRTNEAEFFAEAFRLMHSTDHAERLKVQKNAPKTFQFINDQIKFIINS
In the case of B1, the “stoichiometry N” value is reported as 2 LF molecules per PA63 channel.

Reference: publication PMC5041027 (Membranes, 2016)
